Laboratory results from patent US20040258656.

Legend:
[1] = target: T1, TGFβ3 (transforming growth factor beta 3) (Homo sapiens) (UniProt P10600); test: filter; details: 2'-F C and U; round 0 pool
T1 sequence: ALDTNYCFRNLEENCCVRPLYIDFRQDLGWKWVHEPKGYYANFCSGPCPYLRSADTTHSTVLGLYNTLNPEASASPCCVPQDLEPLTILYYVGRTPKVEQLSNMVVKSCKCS

[2] = target: T2, TGFβ2 (transforming growth factor beta 2) (Homo sapiens) (UniProt P61812); test: filter; details: 2'-F C and U
T2 sequence: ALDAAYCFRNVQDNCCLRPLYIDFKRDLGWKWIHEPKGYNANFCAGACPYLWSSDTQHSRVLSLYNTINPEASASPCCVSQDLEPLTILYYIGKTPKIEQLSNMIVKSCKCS

Sequence	Kd [1] [µM]	Kd ([2]; round 0 pool, printed as >10 [M) [µM]	Kd ([2]; biased round 0 pool, protein excess) [µM]
GGGAGGACGAUGCGGNNNNNNNNNNNNNNNNNNNNNNNNNNNNNNNNNNNNNNNNCAGACGACUCGCCCGA [round 0 40N7 pool]	> 10	> 10	
GGGAGGACGAUGCGGNNNNNNNNNNNNNNNNNNNNNNNNNNNNNNNNNNCAGACGACUCGCCCGA [34N7.21a-21 biased round 0 pool]			0.87
